# In patent US9499613B2, “Notch1 receptor binding agents and methods of use thereof” (OncoMed Pharmaceuticals, Inc., priority 2008, dated 2016):
# Entries after “also recorded” stand apart in the source; their conditions may differ.
# B1: 52M51: murine monoclonal antibody to membrane proximal region of human Notch1; hybridoma ATCC PTA-9405; heavy SEQ ID NO:10, light SEQ ID NO:4 (antibody)
# heavy: MEWTWVFLFLLSVTAGVHSQVQLQQSGAELMKPGASVKISCKAAGYTMRGYWIEWIKQRPGHGLEWIGQILPGTGRTNYNEKFKGKATFTADTSSNTANMQLSSLTSEDSAVYYCARFDGNYGYYAMDYWGQGSSVTVSSAKTTPPSVYPLAPGSAAQTNSMVTLGCLVKGYFPEPVTVTWNSGSLSSGVHTFPAVLQSDLYTLSSSVTVPSSPRPSETVTCNVAHPASSTKVDKKIVPRDCGCKPCICTVPEVSSVFIFPPKPKDVLTITLTPKVTCVVVDISKDDPEVQFSWFVDDVEVHTAQTQPREEQFNSTFRSVSELPIMHQDWLNGKEFKCRVNSAAFPAPIEKTISKTKGRPKAPQVYTIPPPKEQMAKDKVSLTCMITDFFPEDITVEWQWNGQPAENYKNTQPIMNTNGSYFVYSKLNVQKSNWEAGNTFTCSVLHEGLHNHHTEKSLSHSPGK
# light: MAWISLILSLLALSSGAISQAVVTQESALTTSPGETVTLTCRSSTGAVTTSNYANWVQEKPDHLFTGLIGGTNNRAPGVPARFSGSLIGDKAALTITGAQTEDEAIYFCALWYSNHWVFGGGTKLTVLGQPKSSPSVTLFPPSSEELETNKATLVCTITDFYPGVVTVDWKVDGTPVTQGMETTQPSKQSNNKYMASSYLTLTARAWERHSSYSCQVTHEGHTVEKSLSRADCS
# modifications: Synthetic heavy chain of antibody 52M51; Synthetic light chain of antibody 52M51
# B2: 52M51-H4: humanized 52M51 heavy chain variant (SEQ ID NO:22), tested with the murine 52M51 light chain (antibody)
# heavy: QVQLVQSGAEVKKPGASVKISCKVSGYTLRGYWIEWVRQAPGKGLEWIGQILPGTGRTNYNEKFKGRVTMTADTSTDTAYMELSSLRSEDTAVYYCARFDGNYGYYAMDYWGQGTTVTVSSASTKGPSVFPLAPCSRSTSESTAALGCLVKDYFPEPVTVSWNSGALTSGVHTFPAVLQSSGLYSLSSVVTVPSSNFGTQTYTCNVDHKPSNTKVDKTVERKCCVECPPCPAPPVAGPSVFLFPPKPKDTLMISRTPEVTCVVVDVSHEDPEVQFNWYVDGVEVHNAKTKPREEQFNSTFRVVSVLTVVHQDWLNGKEYKCKVSNKGLPAPIEKTISKTKGQPREPQVYTLPPSREEMTKNQVSLTCLVKGFYPSDIAVEWESNGQPENNYKTTPPMLDSDGSFFLYSKLTVDKSRWQQGNVFSCSVMHEALHNHYTQKSLSLSPGK
# light: QAVVTQESALTTSPGETVTLTCRSSTGAVTTSNYANWVQEKPDHLFTGLIGGTNNRAPGVPARFSGSLIGDKAALTITGAQTEDEAIYFCALWYSNHWVFGGGTKLTVLGQPKSSPSVTLFPPSSEELETNKATLVCTITDFYPGVVTVDWKVDGTPVTQGMETTQPSKQSNNKYMASSYLTLTARAWERHSSYSCQVTHEGHTVEKSLSRADCS
# B3: 52M51H4L3: humanized variant of 52M51, heavy chain H4 and light chain L3; DNA deposited as ATCC PTA-9549 (antibody)
# heavy: B2 heavy
# light: SGVDSQAVVTQEPSLTVSPGGTVTLTCRSSTGAVTTSNYANWFQQKPGQAPRTLIGGTNNRAPGVPARFSGSLLGGKAALTLSGAQPEDEAEYYCALWYSNHWVFGGGTKLTVLGQPKAAPSVTLFPPSSEELQANKATLVCLVSDFYPGAVTVAWKADGSPVKVGVETTKPSKQSNNKYAASSYLSLTPEQWKSHRSYSCRVTHEGSTVEKTVAPAECS
# Tests used:
# C8 colon tumor cells = assay: C8 colon tumor xenograft, treatment of established tumors; type: in vivo, NOD/SCID mice; details: C8 colon tumors ~210 mm^3 at start, 10 mg/kg i.p. twice a week
# Procedure: Tumor cells from a patient sample (solid tumor biopsy or pleural effusion) that have been passaged as a xenograft in mice were prepared for repassaging into experimental animals. Tumor tissue was removed, cut up into small pieces, minced completely using sterile blades, and single cell suspensions obtained by enzymatic digestion and mechanical disruption. Dissociated tumor cells were then injected subcutaneously into the mammary fat pads, for breast tumors, or into the flank, for non-breast tumors, of NOD/SCID mice to elicit tumor growth. In certain embodiments, ESA+, CD44+, CD24−/low, Lin− tumorigenic tumor cells are isolated as described in detail above and injected.
# In certain embodiments, freshly isolated C8 colon tumor cells (225 cells per animal) were implanted subcutaneously into NOD/SCID mice. Following tumor cell injection, animals were monitored for tumor growth. Tumors were allowed to grow for 48 days until they reached an average size of approximately 210 mm^3 and randomized into two groups (n=10 per group). The animals were treated with either control antibody or antibody that binds to the membrane proximal region of the extracellular domain of human Notch1, 52M51, (10 mg/kg) dosed i.p. twice a week. Tumor size was assessed on days 55, 57, and 62.
# Notch1 [1] = molecular target: T1, Notch1 (Homo sapiens, UniProt P46531); assay: Western blot of Notch1 ICD formation after DLL4 stimulation of Notch1-Hela cells; type: cell-based; set-up: expressed in transfected cells; host or cells: HeLa (Notch1-Hela); details: DLL4-fc coated wells, five hours
# T1 sequence (P46531 19-2555): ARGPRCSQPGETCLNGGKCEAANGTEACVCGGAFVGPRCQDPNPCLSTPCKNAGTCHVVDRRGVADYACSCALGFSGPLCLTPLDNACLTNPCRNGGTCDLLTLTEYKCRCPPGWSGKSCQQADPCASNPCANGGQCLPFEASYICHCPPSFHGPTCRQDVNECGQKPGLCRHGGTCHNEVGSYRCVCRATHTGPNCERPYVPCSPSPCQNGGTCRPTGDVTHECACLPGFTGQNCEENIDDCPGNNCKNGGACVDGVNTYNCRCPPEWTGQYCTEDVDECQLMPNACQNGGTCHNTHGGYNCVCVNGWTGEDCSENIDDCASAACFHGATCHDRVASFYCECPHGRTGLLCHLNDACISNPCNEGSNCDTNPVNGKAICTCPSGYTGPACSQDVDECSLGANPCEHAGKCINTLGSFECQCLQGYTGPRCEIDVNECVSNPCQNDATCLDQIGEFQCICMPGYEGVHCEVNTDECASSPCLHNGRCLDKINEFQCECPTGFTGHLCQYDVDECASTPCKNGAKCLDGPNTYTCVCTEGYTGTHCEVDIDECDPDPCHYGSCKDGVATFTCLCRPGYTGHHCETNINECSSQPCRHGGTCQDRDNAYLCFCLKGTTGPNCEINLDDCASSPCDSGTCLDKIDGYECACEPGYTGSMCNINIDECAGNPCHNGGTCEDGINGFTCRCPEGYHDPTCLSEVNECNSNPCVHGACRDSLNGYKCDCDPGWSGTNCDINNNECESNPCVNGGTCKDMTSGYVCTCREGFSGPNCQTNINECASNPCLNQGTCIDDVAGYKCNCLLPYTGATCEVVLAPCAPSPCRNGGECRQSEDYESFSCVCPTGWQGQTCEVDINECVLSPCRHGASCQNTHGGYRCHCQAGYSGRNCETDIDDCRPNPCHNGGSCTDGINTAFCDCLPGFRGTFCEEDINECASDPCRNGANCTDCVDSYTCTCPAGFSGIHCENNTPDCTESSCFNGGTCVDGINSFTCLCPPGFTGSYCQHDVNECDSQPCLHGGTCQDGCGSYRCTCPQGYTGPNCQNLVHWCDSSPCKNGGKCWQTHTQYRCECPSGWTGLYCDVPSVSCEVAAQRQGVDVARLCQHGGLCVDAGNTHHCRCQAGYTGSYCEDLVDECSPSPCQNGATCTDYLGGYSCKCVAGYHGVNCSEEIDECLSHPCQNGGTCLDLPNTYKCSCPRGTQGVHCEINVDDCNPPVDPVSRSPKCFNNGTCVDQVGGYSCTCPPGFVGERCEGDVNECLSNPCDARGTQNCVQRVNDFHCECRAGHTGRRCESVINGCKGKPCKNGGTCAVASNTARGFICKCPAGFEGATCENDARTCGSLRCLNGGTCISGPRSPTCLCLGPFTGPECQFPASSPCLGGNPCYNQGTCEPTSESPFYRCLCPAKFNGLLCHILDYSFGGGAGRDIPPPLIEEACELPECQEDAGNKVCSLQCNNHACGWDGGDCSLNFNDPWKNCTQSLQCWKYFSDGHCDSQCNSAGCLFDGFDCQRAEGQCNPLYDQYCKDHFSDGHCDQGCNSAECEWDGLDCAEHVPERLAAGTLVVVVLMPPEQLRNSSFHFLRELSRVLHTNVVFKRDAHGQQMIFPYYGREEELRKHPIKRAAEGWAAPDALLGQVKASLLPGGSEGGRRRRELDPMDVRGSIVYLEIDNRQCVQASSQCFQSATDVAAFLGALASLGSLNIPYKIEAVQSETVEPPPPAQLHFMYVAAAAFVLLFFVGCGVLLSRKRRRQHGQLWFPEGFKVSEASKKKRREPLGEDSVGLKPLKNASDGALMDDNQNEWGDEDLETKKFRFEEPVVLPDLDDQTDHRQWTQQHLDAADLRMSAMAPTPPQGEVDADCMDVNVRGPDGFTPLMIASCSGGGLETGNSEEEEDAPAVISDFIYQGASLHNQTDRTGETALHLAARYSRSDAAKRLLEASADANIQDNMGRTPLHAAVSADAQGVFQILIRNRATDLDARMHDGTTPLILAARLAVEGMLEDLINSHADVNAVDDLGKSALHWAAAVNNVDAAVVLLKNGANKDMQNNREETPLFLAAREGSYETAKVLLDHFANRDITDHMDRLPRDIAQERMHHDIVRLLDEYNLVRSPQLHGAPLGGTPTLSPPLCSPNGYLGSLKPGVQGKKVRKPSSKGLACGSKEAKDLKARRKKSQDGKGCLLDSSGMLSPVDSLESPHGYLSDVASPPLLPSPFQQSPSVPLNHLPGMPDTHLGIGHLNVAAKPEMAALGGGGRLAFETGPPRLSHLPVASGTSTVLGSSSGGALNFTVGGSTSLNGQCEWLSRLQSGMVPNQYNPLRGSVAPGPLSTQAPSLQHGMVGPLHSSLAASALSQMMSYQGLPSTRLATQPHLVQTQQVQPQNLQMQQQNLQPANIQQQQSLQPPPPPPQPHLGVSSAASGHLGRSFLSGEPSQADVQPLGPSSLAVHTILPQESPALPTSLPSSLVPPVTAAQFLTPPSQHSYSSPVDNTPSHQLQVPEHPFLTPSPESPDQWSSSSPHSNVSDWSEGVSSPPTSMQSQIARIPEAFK
# Procedure: Cleavage of Notch receptors by furin, ADAM, and gamma-secretase results in formation of the Notch intracellular domain (ICD) that then triggers downstream Notch signaling in the nucleus. In certain embodiments, the ability of Notch1 receptor antibodies to block ligand-mediated receptor activation was determined by Western blot analysis. Notch1-Hela cells were grown in suspension culture in 293-SMII media (Gibco). Cultured cells were transferred to 96-well plates in which select wells had been pre-coated with human DLL4-fc fusion protein ([…]) in DMEM plus 2% FBS and 1 μM MG132 (Calbiochem). Antibodies to generated against a membrane proximal region of the extracellular domain of human Notch1 were added to the cell culture medium, and cells were incubated at 37° C. for five hours. Wells were then aspirated and the cells resuspended in 2×SDS running buffer. Samples were sonicated at room temperature, and then subjected to SDS-PAGE and western blot analysis using an antibody specific for the cleaved Notch1 ICD according to the manufacturer's recommendations (Cell Signaling Technology).
# Notch1 [2] = molecular target: T1, Notch1; assay: ELISA of conditioned media from cotransfected HEK 293 cells for Notch1 binding activity; details: candidate humanized chains cotransfected into HEK 293 cells
# Procedure: The functionality of each candidate variant humanized heavy and light chain was tested by cotransfection into mammalian cells. Each of the nine candidate humanized 52M51 heavy chains described above was cotransfected into HEK 293 cells with the murine 52M51 light chain cDNA, and conditioned media was assayed by ELISA for Notch1 binding activity. […] This variant “52M51-H4” (SEQ ID NO:22) contains, in addition to murine CDRs, variation at 3 framework positions within the Vh framework, Kabat positions 20, 48, and 71 in comparison with an example human framework (e.g. IGHV1-24). The 52M51-H4 humanized heavy chain was then cotransfected into HEK293 cells with each of the eight candidate humanized light chains, and conditioned media was again assayed for antigen binding by ELISA. […] Variant 52M51-L3 contains, in addition to murine CDRs, variation at 1 framework position at Kabat position 49 in comparison to an example human framework (e.g., IGLV7-46). Two humanized variant antibodies, 52M51H4L3 and 52M51H4L4, were developed. 52M51H4L3, as encoded by DNA deposited with the ATCC, under the conditions of the Budapest Treaty on Oct. 15, 2008, and assigned designation number PTA-9549.
# Notch1 [3] = molecular target: T1, Notch1; assay: hDLL4-fc-induced Notch reporter luciferase assay in Notch1-Hela cells; type: cell-based; set-up: expressed in transfected cells; host or cells: HeLa (Notch1-Hela); details: plates coated with 200 ng/well hDLL4-fc, 48 hours after transfection
# Procedure: In certain embodiments, the ability of Notch1 receptor antibodies to block ligand-mediated Notch signaling was determined. In certain embodiments, HeLa cells engineered to overexpress Notch1 (Notch1-Hela) cultured in DMEM supplemented with antibiotics and 10% FCS were co-transfected with 1) pGL4 8×CBS firefly luciferase containing a Notch responsive promoter upstream of a firefly luciferase reporter gene to measure Notch signaling levels in response to DLL4 ligand; and 2) a Renilla luciferase reporter (Promega; Madison, Wis.) as an internal control for transfection efficiency. Transfected cells were added to cultures plates coated overnight with 200 ng/well of hDLL4-fc protein, and antibodies to Notch1 were then added to the cell culture medium. Forty-eight hours following transfection, luciferase levels were measured using a dual luciferase assay kit (Promega; Madison, Wis.) with firefly luciferase activity normalized to Renilla luciferase activity. The ability of antibodies to inhibit Notch1 pathway activation was thus determined.
molecule,measurement,setting,value
B1,tumor growth compared to control antibody,C8 colon tumor cells,statistically significant (p=0.0006) inhibition of tumor growth; also recorded: significantly (p=0.0006) inhibited tumor growth
same,Notch1 ICD formation after ligand stimulation,Notch1 [1],significantly inhibited the generation of ICD; also recorded: reduce ICD formation to background levels
B2,Notch1 / antigen binding by ELISA,Notch1 [2],most robust binding
B3,Notch signaling (luciferase activity),Notch1 [3],significantly inhibited Notch signaling
